Test results from the supplement of paper PMC10567573.

B1: TBX5 (parent)
chain: FHEVGTEMIITKAGRRMFPSYKVK
B2: TMEM175 (parent)
chain: SCTIIFLASIFQLAMWTTALLHQA

Variants of: B1
Test: protein stability index of a GFP-peptide fusion (GPS, HEK-293T) (PSI 1-6); higher = more stable
Conditions: c terminus: a fixed tail appended
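Note: lentivirally expressed fusions sorted by FACS into six bins by GFP to DsRed ratio, PSI derived from sequencing read proportions per bin multiplied by bin number.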

Protein stability index: each site, then its substitutions
F1: C 2.18, G 3.65, E 3.68, I 2.44, D 3.1, H 2.41, A 3.81

Variants of: B2
Test: as above
Conditions: c terminus: a fixed tail appended

Protein stability index, by site and new letter:
A8: D 3.72, V 2.62, F 3.99, E 2.8, L 3.28, S 3, I 4.22, T 4.12, P 2.84, N 4.58, H 3.28, K 3.08, Q 3.65, Y 3.74, C 2.98, G 3.09
L13: A 2.85, N 3.15, S 3.46, Y 2.81, I 2.5, H 3.13, E 2.24, P 2.24, C 2.76, Q 3.08, F 3.07, D 2.59, V 3.31, M 2.97, R 1.63, T 2.49
I4: W 2.14, A 3.22, H 3.04, D 3.54, N 3, P 4.19, G 2.7, F 2.9, T 2.72, K 3.01, V 2.35, Y 2.23
F6: K 2.52, R 2.56, D 3.81, V 2.74, A 4.41, C 3.39, N 2.86, T 4.09, E 2.76, S 1.02, Q 2.14, P 2.59
F11: I 2.56, M 1.87, W 2.6, K 3.11, L 2.74, C 2.29, N 2.97, E 3.04, R 5.97, Y 1.79, V 2.09, A 3.92, D 2.62, S 2.19, Q 3.1, P 2.96, T 3.38
W16: Q 1.12, N 3.23, G 2.72, K 2.44, M 3.11, S 2.58, P 2.53, H 1.8, R 2.51, I 3.15, A 3.29, F 1.76, Y 3.76, L 2.94, C 3.44, V 3.96
S9: W 4.47, M 2.49, L 3.52, E 4.07, N 3.06, Q 4.14, T 2.5, Y 2.66, A 3.6, K 3.56, R 2.78, P 2.31, G 2.5
L7: H 3.64, F 1.87, P 2.79, N 3.78, G 4.01, T 3.83, E 2.34, Q 3.37, S 2.77, A 4.52, M 2.79, K 2.48, D 4.13, V 3.55, I 3.83, C 3.2, R 3.25, W 3.1
A19: D 2.3, E 2.73, L 2.11, H 1.58, W 3.12, Y 2.1, I 2.14, V 2.43, T 3.07, P 4.62, F 3.13, R 2.19, K 2.76, M 3.22
T17: S 2.31, Y 2.83, K 2.94, N 3.8, Q 2.52, A 1.59, P 2.64, L 3.31, F 1.74, I 3.54, V 2.22, E 2.36, W 4, D 3.83, R 2.01, H 4.62
Q12: N 3.72, C 3.71, S 2.75, F 2.61, P 2.3, M 2.6, L 3.15, D 3.29, E 3.39, A 3.29, G 2.9, Y 1.89, I 3.51, T 3.43, H 3.19, V 2.25
H22: P 3, M 2.74, V 3.39, K 3.44, T 2.65, L 1.86, R 2.5, A 3.84, G 3.04, Q 2.97, W 3.14, N 2.87, Y 2.5, F 2.6, I 4.4, C 3.02
L20: A 3.09, Y 3.22, D 3.05, H 3.02, P 1.81, I 3.51, G 1.94, W 1.4, R 3.39, M 3.22, S 3.1, N 3.09, Q 3.1, F 2.74
L21: F 2.81, Q 2.64, Y 3.71, T 3.02, A 1.45, C 3.36, R 3.98, I 2.71, E 2.55, N 2.05, M 2.73, D 3.61, K 3.7, V 3.72, P 3.35, H 3.3, S 3.45
T3: S 2.57, L 2.92, M 2.56, W 3.07, Q 3, V 2.11, Y 4.1
A14: T 2.73, I 3.4, K 3.08, H 3, C 3.07, L 4.29, F 2.76, D 4, Y 4, P 2.29, G 3.94, Q 4.22, S 2.58, E 1.9, N 2.62, M 3.19, R 3.53, W 2.09
A24: C 3.39, D 4.05, N 2.45, F 2.62, V 1.5, E 3.22, W 3.03, T 3.01, L 3.17, M 1.89, K 2.88, Y 2.61, R 2.43, Q 2.56, S 1.55, I 3.19, H 2.67
T18: D 2.18, R 2.09, F 3.03, Y 2.68, E 2.78, C 3.17, S 3.06, I 2.16, H 2.85, P 3.36, A 2.23, G 1.6, K 2.31, L 2.73
I10: Y 3.52, V 3.47, G 2.65, R 2.81, T 3.72, P 2.65, C 1.64, S 2.97, K 3.74, M 3.48, Q 2.91, A 3.45, D 1.94, N 2.59, H 3.64, W 2.29
Q23: E 2.09, W 3.32, K 3.26, G 4.5, I 2.95, V 3.24, H 2.71, F 3.89, N 4.37, T 3.34, P 3, S 3.77, M 3.84
I5: P 2.58, R 1.6, L 1.46, T 2.35, N 2.28, H 3.05, M 3.44, V 1.82, K 2.92, F 2.81, A 2.65, G 2.33
M15: V 3.45, F 2.73, T 3.17, N 2.51, D 3.28, Y 2.97, W 3.1, L 2.53, A 3.24, S 2.48, P 3.25, I 2.79, K 2.96, Q 2.52, H 2.49, E 3.53, R 1.69
